Several values for one entry are separate records, joined by “and”; a condition that tells them apart may be missing. Identical values can stand only once.
Key:
Assay in all cases: purified protein, by the assay type
[1] = substrate: NC(=O)C1=CN([C@@H]2O[C@H](COP(=O)(O)OP(=O)(O)OC[C@H]3O[C@@H](n4cnc5c(N)ncnc54)[C@H](O)[C@@H]3O)[C@@H](O)[C@H]2O)C=CC1; details: pH 8.0; 25.0 °C
[2] = substrate: NC(=O)C1=CN([C@@H]2O[C@H](COP(=O)(O)OP(=O)(O)OC[C@H]3O[C@@H](n4cnc5c(N)ncnc54)[C@H](OP(=O)(O)O)[C@@H]3O)[C@@H](O)[C@H]2O)C=CC1
[3] = substrate: O=C(O)c1ccc(O)cc1

Protein | Km [1] | Km ([2]; pH 8.0, 25.0 °C) | Km ([3]; pH 8.0, 25.0 °C) | Km ([2]; other: NADPH varied, NADPH detection (340 nm), air-saturated, 200 μM 4-hydroxybenzoate, pH 8, 25° C.) [µM] | Km ([2]; other: NADPH varied, O2 detection (oxygraph), air-saturated, 200 μM 4-hydroxybenzoate, pH 8, 25° C.) [µM] | Km ([3]; other: NADPH as reducing equivalent, NADPH detection (340 nm), air-saturated, 300 μM NAD(P)H, pH 8, 25° C.) [µM] | Km ([3]; other: NADPH as reducing equivalent, O2 detection (oxygraph), air-saturated, 300 μM NAD(P)H, pH 8, 25° C.) [µM]
Paenibacillus sp. JJ-1b PraI (para-hydroxybenzoate-3-hydroxylase, PHBH), BAH79107, tagless, praI_EC gene SEQ ID NO: 3 (Paenibacillus sp.) (protein) RTQVGIIGAGPAGLLLSHLLYLQGIESIIIENRTREEIEGTIRAGVLEQGTVDLMNQMGVGARMMKEGHFHEGFELRFNGRGHRINVHELTGGKYVTVYAQHEVIKDLVAARLQTGGQIHFNVGDVSLHDVDTSSPKIRFRPNKDGELQEIECDFIAGCDGFRGPSRPAIPQSVRKEYQKVYPFSWLGILVEAPPSAHELIYANHERGFALVSTRSPQIQRLYLQVDAQDHIDNWSDDRIWSELHARLETRDGFKLLEGPIFQKGIVSMRSFVCDPMQHGRLFLAGDAAHIVPPTGAKGLNLAAADVQVLARGLEAYYKAGKMEILNRCTEICLRRIWKAERFSWFMTTMLHRDQGHTPFERGIQLAELDYVTSSRAASTSLAENYIGLPMEF | 49 ± 3 µM and 46 ± 4 µM | 27 ± 1 µM and 33 ± 2 µM | 16 ± 1 µM and 19 ± 2 µM and 18 ± 1 µM | – | – | – | –
Pseudomonas putida KT2440 PobA (para-hydroxybenzoate-3-hydroxylase, PHBH), native, PP_3537, tagless, pobA_EC gene SEQ ID NO: 1 (Pseudomonas putida KT2440) (protein) MKTQVAIIGAGPSGLLLGQLLHKAGIDNIIVERQTAEYVLGRIRAGVLEQGTVDLLREAGVAERMDREGLVHEGVELLVGGRRQRLDLKALTGGKTVMVYGQTEVTRDLMQAREASGAPIIYSAANVQPHELKGEKPYLTFEKDGRVQRIDCDYIAGCDGFHGISRQSIPEGVLKQYERVYPFGWLGLLSDTPPVNHELIYAHHERGFALCSQRSQTRSRYYLQVPLQDRVEEWSDERFWDELKARLPAEVAADLVTGPALEKSIAPLRSLVVEPMQYGHLFLVGDAAHIVPPTGAKGLNLAASDVNYLYRILVKVYHEGRVDLLAQYSPLALRRVWKGERFSWFMTQLLHDFGSHKDAWDQKMQEADREYFLTSPAGLVNIAENYVGLPFEEVA | – | – | – | 43 ± 3 | 66 ± 6 | 18 ± 2 | 21 ± 1
